T1: unlabeled VEGF165a homodimer purified in the same manner (with CDN N-terminal appendage)
T1 chain: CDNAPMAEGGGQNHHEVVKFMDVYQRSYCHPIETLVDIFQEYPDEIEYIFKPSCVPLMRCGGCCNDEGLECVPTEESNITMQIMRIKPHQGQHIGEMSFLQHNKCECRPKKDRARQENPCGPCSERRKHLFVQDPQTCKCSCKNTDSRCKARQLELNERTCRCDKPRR

B1: unlabeled VEGF165a homodimer purified in the same manner (with CDN N-terminal appendage) (ligand)
chain: CDNAPMAEGGGQNHHEVVKFMDVYQRSYCHPIETLVDIFQEYPDEIEYIFKPSCVPLMRCGGCCNDEGLECVPTEESNITMQIMRIKPHQGQHIGEMSFLQHNKCECRPKKDRARQENPCGPCSERRKHLFVQDPQTCKCSCKNTDSRCKARQLELNERTCRCDKPRR
modifications: disulfide-linked homodimer; unlabeled; mature VEGF165 limits by convention (191-aa AUG-initiated isoform precursor, signal 1-26) / disulfide-linked homodimer; unlabeled; mature VEGF165 limits by …
B2: unlabeled PDGF-BB homodimer purified in the same manner (with CDN N-terminal appendage) (ligand)
chain: CDNSLGSLTIAEPAMIAECKTRTEVFEISRRLIDRTNANFLVWPPCVEVQRCSGCCNNRNVQCRPTQVQLRPVQVRKIEIVRKKPIFKKATVTLEDHLACKCETVAAARPVT
notes: three-amino acid N-terminal appendage left after HaloTEV cleavage of the modified TEV site EDLYFQC; platelet-derived growth factor subunit B (PDGF-B); Disulfide-linked homodimer; also called PDFG-B; source: HEK293T, transiently expressed as secreted HaloTag fusion, purified (HaloLink beads, HaloTEV release); not shown: HaloTag, N-terminal, cleaved

Experiments:
[1] = target: T1, unlabeled VEGF165a homodimer purified …; test: SDS-PAGE with and without reducing agent; purified growth factors resolved by SDS-PAGE in the presence and absence of 100 mM dithiothreitol (DTT); conditions: both partners purified
[2] = target: the molecule itself; test: as above

Row | Binder | stoichiometry N [1] | stoichiometry N [2]
1 | B1 | 2 | 
2 | B2 |  | 2
